Test results published in US20160272690A1 (BAO KANG BIOMEDICAL HEALTHCARE, published 2016).
Bridges are numbered along the chain shown (N, C = ends). Where no end group is shown, it is not given here. [ ]: non-standard residue; d: D form. hCys = N[C@@H](CCS)C(=O)O

T1: TEAD
T1 chain: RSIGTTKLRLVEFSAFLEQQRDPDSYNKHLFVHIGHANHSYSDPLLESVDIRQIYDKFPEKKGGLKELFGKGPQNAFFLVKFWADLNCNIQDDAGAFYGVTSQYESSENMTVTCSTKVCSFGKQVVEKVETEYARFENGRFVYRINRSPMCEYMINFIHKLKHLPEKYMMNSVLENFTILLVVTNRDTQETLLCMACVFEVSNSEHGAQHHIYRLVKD

B1: polypeptide represented by SEQ ID NO.: 8 (peptide)
peptide: VPMCLRKLPESFCHPPE
modifications: disulfide 4-13
B2: polypeptide represented by SEQ ID NO.: 9 (peptide)
peptide: VPM[hCys]LRKLPCSFCDPPE
modifications: disulfide 4-13

Target: T1, TEAD
Assay: IC50 for TEAD binding (TR-FRET test)

Binder | IC50
B1 | 28 nM
B2 | 25 nM
